Measured values reported in patent publication US20240116985A1 (published 2024).
Starred links: 1 amine or outer side, 2 acyl side, 3 side chain; linkers in the order of their positions; H or OH if unused. Positions of bridges follow the written chain, without caps; N, C: chain ends. Non-standard residues stand in square brackets, D forms with d. Primed or numbered codes have the meaning given here. B5(29) = 2-amino-2-(pent-4-en-1-yl)hept-6-enoic acid (2,2-bis(4-pentenyl)glycine), stitching residue bearing both staples, C=CCCCC(CCCC=C)(N[*:1])C(=O)[*:2]; PyrS2″ = (S)-3-amino-1-((pent-4-en-1-yloxy)carbonyl)pyrrolidine-3-carboxylic acid (stapling residue), C=CCCCOC(=O)N1CC[C@@](N[*:1])(C(=O)[*:2])C1; B5(17) = 2,2-bis(4-pentenyl)glycine = 2-amino-2-(pent-4-en-1-yl)hept-6-enoic acid, stitching residue, C=CCCCC(CCCC=C)(N[*:1])C(=O)[*:2]; B5(6) = 2-amino-2-(pent-4-en-1-yl)hept-6-enoic acid (bis(4-pentenyl)glycine), stitching residue, C=CCCCC(CCCC=C)(N[*:1])C(=O)[*:2]; B5(3) = 2,2-bis(4-pentenyl)glycine (stitching residue), C=CCCCC(CCCC=C)(N[*:1])C(=O)[*:2]; Bta = N[C@@H](Cc1csc2ccccc12)C(=O)O; αAllylPro = C=CC[C@@]1(C(=O)O)CCCN1; tBuAla = CC(C)(C)C[C@H](N)C(=O)O; 3Thi = N[C@@H](Cc1ccsc1)C(=O)O; S8 = C=CCCCCCC[C@](C)(N)C(=O)O; PyrS2(4) = not defined here; hSer = N[C@@H](CCO)C(=O)O

T1: B-cat-Halo (UniProt P35222 2-781)
T1 sequence (looked up): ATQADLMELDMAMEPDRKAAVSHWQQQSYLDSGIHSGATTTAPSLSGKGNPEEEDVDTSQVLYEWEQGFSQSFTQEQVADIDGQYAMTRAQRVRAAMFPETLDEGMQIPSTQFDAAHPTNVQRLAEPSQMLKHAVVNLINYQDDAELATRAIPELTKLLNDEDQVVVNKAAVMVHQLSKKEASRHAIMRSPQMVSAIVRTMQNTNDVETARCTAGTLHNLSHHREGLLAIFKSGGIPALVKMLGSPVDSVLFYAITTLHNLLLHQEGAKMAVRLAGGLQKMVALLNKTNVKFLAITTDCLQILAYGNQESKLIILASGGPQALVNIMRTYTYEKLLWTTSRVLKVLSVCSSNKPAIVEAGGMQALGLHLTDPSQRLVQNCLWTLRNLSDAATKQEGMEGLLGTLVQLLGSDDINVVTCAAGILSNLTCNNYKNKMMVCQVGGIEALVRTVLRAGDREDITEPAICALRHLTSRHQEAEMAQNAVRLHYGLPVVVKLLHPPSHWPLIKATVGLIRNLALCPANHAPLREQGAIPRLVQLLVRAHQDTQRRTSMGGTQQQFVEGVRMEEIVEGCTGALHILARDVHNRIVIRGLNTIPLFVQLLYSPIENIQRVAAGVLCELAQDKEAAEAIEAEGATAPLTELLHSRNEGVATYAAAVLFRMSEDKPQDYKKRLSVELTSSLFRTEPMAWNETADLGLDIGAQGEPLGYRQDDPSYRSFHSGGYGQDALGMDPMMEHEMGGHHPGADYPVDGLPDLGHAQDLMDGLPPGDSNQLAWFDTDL

T2: full-length beta-Catenin (Uniprot ID P35222) (Homo sapiens (Human), UniProt P35222 2-781)
T2 construct: No tag is stated for the FP assay; also called bCat; B-Catenin
T2 sequence: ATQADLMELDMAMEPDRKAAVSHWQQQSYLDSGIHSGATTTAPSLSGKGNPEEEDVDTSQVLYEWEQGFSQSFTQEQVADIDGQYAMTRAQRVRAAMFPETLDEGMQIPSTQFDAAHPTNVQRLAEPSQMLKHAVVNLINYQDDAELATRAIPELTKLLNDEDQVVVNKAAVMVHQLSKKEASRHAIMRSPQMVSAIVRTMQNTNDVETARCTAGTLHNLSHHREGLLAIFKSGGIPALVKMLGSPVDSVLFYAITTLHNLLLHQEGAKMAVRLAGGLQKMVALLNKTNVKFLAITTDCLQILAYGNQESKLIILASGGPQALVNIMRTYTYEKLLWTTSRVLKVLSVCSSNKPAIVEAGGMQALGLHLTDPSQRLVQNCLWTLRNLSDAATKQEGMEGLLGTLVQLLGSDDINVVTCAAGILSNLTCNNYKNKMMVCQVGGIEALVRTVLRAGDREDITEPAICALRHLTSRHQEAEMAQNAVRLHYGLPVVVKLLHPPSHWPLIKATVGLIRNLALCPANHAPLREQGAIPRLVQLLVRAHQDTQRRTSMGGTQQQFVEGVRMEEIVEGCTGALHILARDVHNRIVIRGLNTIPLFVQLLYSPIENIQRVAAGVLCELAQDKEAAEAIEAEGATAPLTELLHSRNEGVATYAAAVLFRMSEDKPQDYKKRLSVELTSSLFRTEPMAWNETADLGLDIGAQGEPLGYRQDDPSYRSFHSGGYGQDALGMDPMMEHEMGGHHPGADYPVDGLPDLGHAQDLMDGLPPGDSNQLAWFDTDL


Target: T1, B-cat-Halo
Assay: cell-based or functional assay

NanoBRET Abs IC50 [nM] | Binder
22800 | Ac-[αAllylPro]D[tBuAla][B5(3)]DHAAFL[PyrS2(4)][3Thi][Bta]Q-NH2 (staple 1-4, 4-11; not fully specified; reading uncertain) [I-1795]
37700 | Ac-[αAllylPro]D[tBuAla][B5(3)]DHAAF[hSer][PyrS2″][3Thi][Bta]Q-NH2 (staple 1-4, 4-11; not fully specified; printed as Ac-PL3-Asp-Npg-B5-Asp-His-Ala-Ala-Phe-Hse-PyrS2-3Thi-BztA-Gln-NH2) [I-1794]
> 20000 | Ac-[αAllylPro]D[tBuAla][B5(3)]DHAAFL[PyrS2″][3Thi][Bta]Q-NH2 (staple 1-4, 4-11; not fully specified; printed as Ac-PL3-Asp-Npg-B5-Asp-His-Ala-Ala-Phe-Leu-PyrS2-3Thi-BztA-Gln-NH2) [I-1796]

Target: T2, full-length beta-Catenin (Uniprot ID …)
Assay: fluorescence polarization competition; full-length beta-catenin with 5FAM-TCF4(10-53) probe as competitor
Description: The plate was incubated protected from light for 60 minutes at 20° C. prior to read. Reads were performed on a CLARIOstar plate reader (BMG Labtech) in duplicate, and data were fitted to a 1:1 binding model with hill slope using an in-house script. All provided concentrations are final concentrations.

IC50 [nM] | Binder
82 | XDAXDEAAFQXFXQ (not fully specified; Ac-PL3-Asp-Ala-B5-Asp-Glu-Ala-Ala-Phe-Gln-S8-Phe-BztA-DGIn-NH2 (so in the source); D-Gln at 14); N-terminal acetyl, C-terminal amide; PL3(1)-B5(4) and B5(4)-S8(11) stapled by olefin metathesis; BztA at 13, Stapled (stitched) peptide composition) [I-494]
5000 | Ac-[αAllylPro]DA[B5(6)][hSer]EAAFQ[S8]F[Bta]Q-NH2 (staple 1-4, 4-11; not fully specified; printed as Ac-PL3-Asp-Ala-B5-Hse-Glu-Ala-Ala-Phe-Gln-S8-Phe-BztA-Gln-NH2, Stapled peptide; this is the second eluting HPLC peak (staple isomer composition)) [I-497]
153 | Ac-[αAllylPro]DA[B5(17)]DEAAFQ[S8]F[Bta][hSer]-NH2 (staple 1-4, 4-11; also: earlier eluting HPLC peak, E/Z not assigned, Stapled peptide; this is the earlier eluting HPLC peak (staple isomer composition)) [I-491]
119 | Ac-[αAllylPro]DT[B5(29)]DEAAFQ[S8]F[Bta]Q-NH2 (staple 1-4, 4-11, Stapled (stitched) peptide composition) [I-477]
88 | XDAXDEAAFQXFXS (not fully specified; Ac-PL3-Asp-Ala-B5-Asp-Glu-Ala-Ala-Phe-Gln-S8-Phe-BztA-DSer-NH2; N-terminal acetyl, C-terminal amide; PL3(1)-B5(4) and B5(4)-S8(11) stapled by olefin metathesis; BztA at 13; D-Ser at 14, Stapled (stitched) peptide composition) [I-493]
53 | Ac-[αAllylPro]DA[B5(17)]DEAAFQ[S8]F[Bta][hSer]-NH2 (staple 1-4, 4-11; also: later eluting HPLC peak, E/Z not assigned, Stapled peptide; this is the later eluting HPLC peak (staple isomer composition)) [I-492]
5000 | Ac-[αAllylPro]DA[B5(17)][hSer]EAAFQ[S8]F[Bta]Q-NH2 (staple 1-4, 4-11; not fully specified; printed as Ac-PL3-Asp-Ala-B5-Hse-Glu-Ala-Ala-Phe-Gln-S8-Phe-BztA-Gln-NH2, Stapled peptide; this is the first eluting HPLC peak (staple isomer composition)) [I-496]
62 | Ac-[αAllylPro]DI[B5(29)]DEAAFN[S8]F[Bta]H-NH2 (staple 1-4, 4-11, Stapled (stitched) peptide composition) [I-472]
27 | XDAXDEAAFNXFXH (not fully specified; Ac-PL3-Asp-Ala-B5-Asp-Glu-Ala-Ala-Phe-Asn-S8-Phe-BztA-1MeH-NH2; N-terminal acetyl, C-terminal amide; PL3(1)-B5(4) and B5(4)-S8(11) stapled by olefin metathesis; BztA at 13; 1MeH at 14, Stapled peptide; this is the later eluting HPLC peak (staple isomer composition)) [I-479]
71 | XDAXDEAAFNXFXH (not fully specified; Ac-PL3-Asp-Ala-B5-Asp-Glu-Ala-Ala-Phe-Asn-S8-Phe-BztA-1MeH-NH2; N-terminal acetyl, C-terminal amide; PL3(1)-B5(4) and B5(4)-S8(11) stapled by olefin metathesis; BztA at 13; 1MeH at 14, Stapled peptide; this is the earlier eluting HPLC peak (staple isomer composition)) [I-478]
102 | XDIXDEAAFNXFXQ (not fully specified; Ac-PL3-Asp-aIle-B5-Asp-Glu-Ala-Ala-Phe-Asn-S8-Phe-BztA-Gln-NH2; N-terminal acetyl, C-terminal amide; PL3(1)-B5(4) and B5(4)-S8(11) stapled by olefin metathesis; aIle at 3; BztA at 13, Stapled peptide; this is the earlier eluting HPLC peak (staple isomer composition)) [I-475]
52 | Ac-[αAllylPro]DI[B5(6)]DEAAFQ[S8]F[Bta]H-NH2 (staple 1-4, 4-11, Stapled (stitched) peptide composition) [I-471]
48 | XDIXDEAAFNXFXQ (not fully specified; Ac-PL3-Asp-aIle-B5-Asp-Glu-Ala-Ala-Phe-Asn-S8-Phe-BztA-Gln-NH2; N-terminal acetyl, C-terminal amide; PL3(1)-B5(4) and B5(4)-S8(11) stapled by olefin metathesis; aIle at 3; BztA at 13, Stapled peptide; this is the later eluting HPLC peak (staple isomer composition)) [I-476]
181 | XDIXDEAAFQXFXN (not fully specified; Ac-PL3-Asp-Ile-B5-Asp-Glu-Ala-Ala-Phe-Gln-S8-Phe-BztA-Asn-NH2; N-terminal acetyl, C-terminal amide; PL3(1)-B5(4) and B5(4)-S8(11) stapled by olefin metathesis; BztA at 13, Stapled (stitched) peptide composition) [I-495]
